The target of one experiment is T1, GLP-2R N334^ECL2A (Homo sapiens, UniProt O95838, N334A).
T1 sequence (O95838 1-553 N334A): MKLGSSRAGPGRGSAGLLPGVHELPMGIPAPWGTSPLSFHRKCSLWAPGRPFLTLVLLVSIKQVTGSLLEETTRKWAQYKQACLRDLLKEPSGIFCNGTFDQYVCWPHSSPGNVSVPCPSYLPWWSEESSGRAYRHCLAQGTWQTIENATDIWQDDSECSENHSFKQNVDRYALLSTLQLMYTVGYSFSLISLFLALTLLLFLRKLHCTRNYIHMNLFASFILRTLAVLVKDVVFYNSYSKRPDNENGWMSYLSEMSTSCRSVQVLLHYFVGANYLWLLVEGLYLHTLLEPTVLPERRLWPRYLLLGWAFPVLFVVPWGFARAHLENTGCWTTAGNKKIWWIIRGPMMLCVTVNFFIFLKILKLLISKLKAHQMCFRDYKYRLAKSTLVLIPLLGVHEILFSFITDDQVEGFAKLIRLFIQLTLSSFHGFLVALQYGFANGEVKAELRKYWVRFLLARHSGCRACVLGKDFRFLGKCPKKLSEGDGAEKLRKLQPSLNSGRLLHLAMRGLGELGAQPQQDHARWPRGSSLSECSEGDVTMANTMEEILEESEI
The experiment in a line: cAMP accumulation, N334^ECL2A. It is filed as cell-based. Also noted: GLP-2R (1-553) (WT); expressed in transfected cells; host or cells: HEK 293T. The conditions noted are these: Table S3, N334A; HEK 293T, 30 min, RT; mean ± SEM, n ≥ 3 in duplicate; read-out: cAMP Emax (% WT). On the procedure: (§1) HEK 293T cells were cultured in Dulbecco’s Modified Eagle’s Medium (DMEM) (Gibco, Waltham, USA) supplemented with 10% (v/v) fetal bovine serum (FBS) (Gibco) and 1% (v/v) sodium pyruvate (Gibco) at 37 °C, 5% CO2 in a humidified incubator. They were seeded onto 6-well cell culture plates and transiently transfected with different GLP-2R constructs using Lipofectamine 2000 transfection reagent (Invitrogen, Carlsbad, CA, USA). After 24 h, the transfected cells were seeded onto 384-well microtiter plates (3000 cells per well) in HBSS supplemented with 5 mM HEPES, 0.1% (w/v) bovine serum albumin (BSA) and 0.5 mM 3-isobutyl-1- methylxanthine, and stimulated with increasing concentrations of GLP-2 for 30 min at RT. Eu and Ulight were diluted by cAMP detection buffer and added to the plates separately to terminate the reaction. Plates were incubated at RT for 60 min before measuring the fluorescence intensity at 620 nm and […] by an EnVision multilabel plate reader (PerkinElmer, Boston, USA).

The next experiment deals with T2, GLP-2R K414^7.35A (Homo sapiens, UniProt O95838, K414A).
T2 sequence (O95838 1-553 K414A): T1 sequence (O95838 1-553 N334A) with A334N, K414A
Briefly: cAMP accumulation, K414^7.35A. Type of experiment: cell-based. Further details: GLP-2R (1-553) (WT); expressed in transfected cells; host or cells: HEK 293T. The note with it: Table S3, K414A; HEK 293T, 30 min, RT; mean ± SEM, n ≥ 3 in duplicate; read-out: cAMP Emax (% WT). On the procedure: as §1
In general terms: cAMP levels reflect the balance of adenylyl cyclase and phosphodiesterase activity.

Experiment [1] has as its target GLP-2R H268^3.37A (human) (UniProt O95838). Briefly: radioligand binding; competition on transiently transfected COS-7 cells: unlabeled teduglutide 0.1 nM to 1 μM against 10–15 pM [125I]GLP-2(1–33, M10Y); 4 h, 4 °C; 50 mM HEPES pH 7.4, 1 mM CaCl2, 5 mM MgCl2, 0.5% BSA; three-parameter logistic fit.
Experiment [2] has as its target GLP-2R R242^ECL1A (human) (UniProt O95838). The description is as above.
The target in experiment [3] is GLP-2R R344^5.40A (human) (UniProt O95838). Described as above.
The target in experiment [4] is GLP-2R Y252^ECL1A (human) (UniProt O95838). The experiment is described as above.
Experiment [5] concerns the target Human GLP-2R WT (1–553) (human) (UniProt O95838). The description is as above.

Positions count from the first letter of the chain named.

Regarding `CC[C@H](C)[C@H](NC(=O)[C@H](Cc1ccccc1)NC(=O)[C@H](CC(=O)O)NC(=O)[C@H](CCCNC(=N)N)NC(=O)[C@H](C)NC(=O)[C@H](C)NC(=O)[C@H](CC(C)C)NC(=O)[C@H](CC(N)=O)NC(=O)[C@H](CC(=O)O)NC(=O)[C@H](CC(C)C)NC(=O)[C@@H](NC(=O)[C@@H](NC(=O)[C@H](CC(N)=O)NC(=O)[C@H](CCSC)NC(=O)[C@H](CCC(=O)O)NC(=O)[C@H](CC(=O)O)NC(=O)[C@H](CO)NC(=O)[C@H](Cc1ccccc1)NC(=O)[C@H](CO)NC(=O)CNC(=O)[C@H](CC(=O)O)NC(=O)[C@H](C)NC(=O)[C@@H](N)Cc1c[nH]cn1)[C@@H](C)O)[C@@H](C)CC)C(=O)N[C@@H](CC(N)=O)C(=O)N[C@@H](Cc1c[nH]c2ccccc12)C(=O)N[C@@H](CC(C)C)C(=O)N[C@H](C(=O)N[C@@H](CCC(N)=O)C(=O)N[C@H](C(=O)N[C@@H](CCCCN)C(=O)N[C@H](C(=O)N[C@H](C(=O)N[C@@H](CC(=O)O)C(=O)O)[C@@H](C)O)[C@@H](C)CC)[C@@H](C)O)[C@@H](C)CC` [Human GLP-2 (1–33)], the Emax at GLP-2R N334^ECL2A was 103 ± 2.9%; at GLP-2R K414^7.35A, 110 ± 3.3%.

For the compound [^125I]GLP-2(1–33, M10Y) (peptide), the % Binding of WT in experiment [1] is 0.7%; in experiment [2], 5.1%; in experiment [3], 3.5%; in experiment [4] it was 6.3%; in experiment [5], 99.7%.

Broadly, the Emax is the greatest response seen or fitted, relative to the assay's reference.
